According to patent publication US20140256626A1, “PEG CONJUGATES OF EXENATIDE” (priority 2011, published 2014):

Biological target: human GLP-1 receptor (human) (UniProt P43220)
Experiment: cell-based or functional assay

Sequence of human GLP-1 receptor (human) (P43220 24-463 limits assumed): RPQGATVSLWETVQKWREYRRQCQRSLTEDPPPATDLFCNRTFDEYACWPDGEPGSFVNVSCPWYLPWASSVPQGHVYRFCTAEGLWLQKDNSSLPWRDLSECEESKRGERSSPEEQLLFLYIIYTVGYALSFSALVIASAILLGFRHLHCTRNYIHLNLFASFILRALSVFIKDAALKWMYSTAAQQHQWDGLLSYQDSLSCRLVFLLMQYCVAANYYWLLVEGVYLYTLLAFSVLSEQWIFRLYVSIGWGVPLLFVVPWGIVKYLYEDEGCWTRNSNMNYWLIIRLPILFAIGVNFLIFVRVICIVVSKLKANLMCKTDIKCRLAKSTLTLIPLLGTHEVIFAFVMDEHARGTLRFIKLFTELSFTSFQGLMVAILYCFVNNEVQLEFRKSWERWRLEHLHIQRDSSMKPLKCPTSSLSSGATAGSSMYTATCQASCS

Substance | EC50 (DiscoveRx GLP1R cAMP Hunter assay) [nM] | fold decrease of biological activity against free exenatide [fold]
Stably-linked N-[6-azidohexyloxy]-exenatide conjugate of Example 5 (non-releasable control conjugate, R1 = absent, conjugated to DBCO-Lys(DEAC)-[GL4-400] 40 kDa four-branched PEG) (peptide) | > 100 | > 10000
Exenatide (exendin-4) (peptide) | 0.066 | 
